Measurements from US20170218059A1.

Target: histones
Experiment: ELISA

Kd: 6.6 nM
B1: murine IMMU-H4 antibody (antibody, V domains shown)
VH: QVQLQQSGAELVRPGASVKLSCTASGFNIKDDYLHWVKQRPEQGLEWIGWIDPENGDTEYASKFQGKATITADTSSNTAYLQLSSLTSEDTAVYYCSSPLVHLRTFAYWGQGTLVTVS
VL: DIQLTQSPASLAVSLGQRATISCRASESVDSYDNSLHWFQQKPGQPPKLLIYLASNLESGVPARFSGSGSRTDFTLTIDPVEADDAATYYCQQNNEDPWTFGGGTKLEIKR
